Among the data in paper doi:10.1101/2020.12.08.416958 are maximum enthalpy values, retold here.

The target of this test is L-lactate oxidase (UniProt Q44467). The test can be described thus: ITC.
Sequence of UniProt Q44467 (Q44467 whole entry): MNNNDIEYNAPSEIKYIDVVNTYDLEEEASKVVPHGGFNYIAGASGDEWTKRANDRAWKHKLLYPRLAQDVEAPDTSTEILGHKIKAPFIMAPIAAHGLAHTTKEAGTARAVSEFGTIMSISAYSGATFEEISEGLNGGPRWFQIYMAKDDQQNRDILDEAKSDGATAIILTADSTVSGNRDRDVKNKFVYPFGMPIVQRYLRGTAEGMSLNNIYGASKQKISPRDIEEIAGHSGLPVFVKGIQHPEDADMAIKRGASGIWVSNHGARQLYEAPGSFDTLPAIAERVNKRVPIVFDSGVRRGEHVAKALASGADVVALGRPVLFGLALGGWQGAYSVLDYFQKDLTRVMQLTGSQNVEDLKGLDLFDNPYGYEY

“Poly-L-lysine hydrobromide (molecular weight 4,000-15,000 Da) (peptide)”: the maximum enthalpy turned out to be 0.7 kcal/mol.
